Experimental data taken from patent US20220220224A1 (Hoffmann-La Roche, published 2022).
Where two headings read alike, the source gives them in different places.

Key:
[1] = biological target: T1, human FolR1 expressed on cells (HeLa, SKOV3, HT-29, transfected HEK cells) (human, UniProt P15328 25-234); test: cell-based or functional assay
[2] = biological target: T1, human FolR1 expressed on cells (HeLa, …); test: cell-based or functional assay; remark: listed apart in the source
[3] = biological target: T2, recombinant biotinylated monomeric Fc fusion of human Folate Receptor 1 (huFolR1 ECD-AcTev-Fcknob-Avi tag … (human, UniProt P0DOX5 223-449 = IgG part, biotin on the C-terminal Avi tag)); test: SPR Biacore, affinity (monovalent)
T2 construct: also called huFolR1-Fc; human FolR1-Fc

[4] = biological target: T2, recombinant biotinylated monomeric Fc …; test: SPR Biacore, affinity (monovalent), antibody captured via anti-Fab
Method: (§1) All SPR experiments were performed on a Biacore T200 at 25° C. with HBS-EP as running buffer (0.01 M HEPES pH 7.4, 0.15 M NaCl, 3 mM EDTA, 0.005% Surfactant P20, Biacore, GE Healthcare). The molecules used for affinity and avidity determination are described in Table 45.
(§2) For affinity measurement, direct coupling of around 12000 resonance units (RU) of the anti-human Fab specific antibody (Fab capture kit, GE Healthcare) was performed on a CM5 chip at pH 5.0 using the standard amine coupling kit (GE Healthcare). Anti-FolR1 T cell bispecifics were captured at 20 nM with a flow rate of 10 μl/min for 40 sec, the reference flow cell was left without capture. […] The dissociation phase was monitored for 300 s and triggered by switching from the sample solution to HBS-EP. The chip surface was regenerated after every cycle using a double injection of 60 sec 10 mM Glycine-HCl pH 2.1. Bulk refractive index differences were corrected for by subtracting the response obtained on the reference flow cell 1. The affinity constants for the interactions were derived from the rate constants by fitting to a 1:1 Langmuir binding using the Bia Evaluation software (GE Healthcare). For low affinity kinetics with association and dissociation phases too fast to be fitted by the 1:1 Langmuir binding model, the steady state analysis model was applied using the Bia Evaluation software (GE Healthcare). The steady state analysis gives the KD of the binding reaction at equilibrium.

[5] = biological target: T3, recombinant biotinylated monomeric Fc fusion of cynomolgus Folate Receptor 1 (cy FolR1 ECD-AcTev-Fcknob-Avi … (cynomolgus, UniProt P0DOX5 223-449 = IgG part, biotin on the C-terminal Avi tag)); test: as above
T3 construct: also called cyFolR1-Fc; cyno FolR1
Method: as §1, §2

[6] = biological target: T2, recombinant biotinylated monomeric Fc …; test: SPR Biacore, avidity (bivalent)
[7] = biological target: T2, recombinant biotinylated monomeric Fc …; test: SPR Biacore, avidity (bivalent, apparent KD), antigen-Fc on SA chip
Method: as §1
(§3) Recombinant biotinylated monomeric Fc fusions of human, cynomolgus and murine Folate Receptor 1 (FolR1-Fc) were directly coupled on a SA chip using the standard coupling instruction (Biacore, GE Healthcare). The immobilization level was about 200-300 RU. […] The dissociation was monitored for 240 or 600 seconds. The chip surface was regenerated after every cycle using a double injection of 30 sec 10 mM Glycine-HCl pH 1.5. Bulk refractive index differences were corrected for by subtracting the response obtained on reference flow cell immobilized with recombinant biotinylated murine IL2R Fc fusion (unrelated Fc fused receptor). The binding curves resulting from the bivalent binding of the T cell bispecifics were approximated to a 1:1 Langmuir binding (even though it is a 1:2 binding) and fitted with that model to get an apparent KD representing the avidity of the bivalent binding. The apparent avidity constants for the interactions were derived from the rate constants of the fitting using the Bia Evaluation software (GE Healthcare).

[8] = biological target: T3, recombinant biotinylated monomeric Fc …; test: as above
Method: as §1, §3

[9] = biological target: T1, human FolR1 expressed on cells (HeLa, …); test: cell-based or functional assay; remark: listed apart in the source
[10] = biological target: T4, recombinant biotinylated monomeric Fc fusion of murine Folate Receptor 1 (mu FolR1 ECD-AcTev-Fcknob-Avitag … (murine, UniProt P0DOX5 223-449 = IgG part, biotin on the C-terminal Avi tag)); test: SPR Biacore, single injection on immobilized antigen-Fc
T4 construct: also called muFolR1-Fc; murine FolR1
Method: as §1
(§4) First the anti-FolR1 TCBs were analyzed by single injections (Table 46) to characterize their crossreactivity (to human, murine and cyno FolR1) and specificity (to human FolR1, human FolR2, human FolR3). Recombinant biotinylated monomeric Fc fusions of human, cynomolgus and murine Folate Receptor 1 (FolR1-Fc) or human Folate Receptor 2 and 3 (FolR2-Fc, FolR3-Fc) were directly coupled on a SA chip using the standard coupling instruction (Biacore, Freiburg/Germany). The immobilization level was about 300-400 RU. The TCBs were injected for 60 seconds at a concentration of 500 nM.

[11] = biological target: T5, recombinant biotinylated monomeric Fc fusion of human Folate Receptor 2 (hu FolR2 ECD-AcTev-Fcknob-Avi tag … (human, UniProt P0DOX5 223-449 = IgG part, biotin on the C-terminal Avi tag)); test: as above
T5 construct: also called FolR2-Fc
Method: as §1, §4

[12] = biological target: T6, recombinant biotinylated monomeric Fc fusion of human Folate Receptor 3 (hu FolR3 ECD-AcTev-Fcknob-Avi tag … (human, UniProt P0DOX5 223-449 = IgG part, biotin on the C-terminal Avi tag)); test: as above
T6 construct: also called FolR3-Fc
Method: as §1, §4

[13] = biological target: T4, recombinant biotinylated monomeric Fc …; test: SPR Biacore, single injection 500 nM on immobilized antigen-Fc
Method: Binding of FolR1 binders as IgG or in the T-cell bispecific format to different recombinant folate receptors (human FolR1, 2 and 3, murine FolR1 and cynomolgus FolR1; all as Fc fusions) was assessed by surface plasmon resonance (SPR). All SPR experiments were performed on a Biacore T200 at 25° C. with HBS-EP as running buffer (0.01 M HEPES pH 7.4, 0.15 M NaCl, 3 mM EDTA, 0.005% Surfactant P20, Biacore, Freiburg/Germany).
as §4, with “IgGs” for “TCBs”, “1)” for “46)”

[14] = biological target: T5, recombinant biotinylated monomeric Fc …; test: SPR Biacore, single injection on immobilized antigen-Fc; remark: listed apart in the source
Summary of the method: (§5)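 Biacore T200 at 25 °C in HBS-EP (HEPES pH 7.4). Biotinylated FolR-Fc fusions captured on SA chip at about 300-400 RU. IgGs injected once at 500 nM for 60 s to assess cross-reactivity and specificity.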

[15] = biological target: T6, recombinant biotinylated monomeric Fc …; test: as above; remark: listed apart in the source
Summary of the method: as §5

[16] = biological target: T2, recombinant biotinylated monomeric Fc …; test: SPR Biacore, avidity set-up, steady state
Method: (§6) The avidity of the interaction between the anti-FolR1 IgGs or T cell bispecifics and the recombinant folate receptors was determined as described below (Table 41).
(§7) Recombinant biotinylated monomeric Fc fusions of human, cynomolgus and murine Folate Receptor 1 (FolR1-Fc) were directly coupled on a SA chip using the standard coupling instruction (Biacore, Freiburg/Germany). The immobilization level was about 300. […] The dissociation was monitored for 240 or 600 seconds. Bulk refractive index differences were corrected for by subtracting the response obtained on reference flow cell immobilized with recombinant biotinylated murine IL2 receptor Fc fusion. The binding curves resulting from the bivalent binding of the IgG or T cell bispecifics were approximated to a 1:1 Langmuir binding (even though it is a 1:2 binding) and fitted with that model to get an apparent KD representing the avidity of the bivalent binding. The apparent avidity constants for the interactions were derived from the rate constants of the fitting using the Bia Evaluation software (GE Healthcare). For low affinity kinetics with association and dissociation phases too fast to be fitted by the 1:1 Langmuir binding model, the steady state analysis model was applied using the Bia Evaluation software (GE Healthcare). The steady state analysis gives the KD of the binding reaction at equilibrium.

[17] = biological target: T3, recombinant biotinylated monomeric Fc …; test: SPR Biacore, avidity set-up, steady state
Method: as §6, §7

T1 sequence (P15328 25-234): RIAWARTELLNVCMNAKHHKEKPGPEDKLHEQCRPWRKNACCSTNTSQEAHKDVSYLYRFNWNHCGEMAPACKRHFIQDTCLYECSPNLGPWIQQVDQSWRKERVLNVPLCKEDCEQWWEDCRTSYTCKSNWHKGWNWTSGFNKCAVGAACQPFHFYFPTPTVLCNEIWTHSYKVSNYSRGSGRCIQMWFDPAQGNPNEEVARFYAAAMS

B1: 9D11 TCB S100aA (CD3 deamidation variant) (bispecific antibody, human IgG1, kappa, L234A L235A)
heavy 1: not shown
heavy 2: QVQLVQSGAEVKKPGASVKVSCKASGYTFTSYYMHWVRQAPGQGLEWMGIINPSGGPTSYAQKFQGRVTMTRDTSTSTVYMELSSLRSEDTAVYYCARGDFAWLDYWGQGTLVTVSSASTKGPSVFPLAPSSKSTSGGTAALGCLVKDYFPEPVTVSWNSGALTSGVHTFPAVLQSSGLYSLSSVVTVPSSSLGTQTYICNVNHKPSNTKVDKKVEPKSCDKTHTCPPCPAPEAAGGPSVFLFPPKPKDTLMISRTPEVTCVVVDVSHEDPEVKFNWYVDGVEVHNAKTKPREEQYNSTYRVVSVLTVLHQDWLNGKEYKCKVSNKALGAPIEKTISKAKGQPREPQVCTLPPSRDELTKNQVSLSCAVKGFYPSDIAVEWESNGQPENNYKTTPPVLDSDGSFFLVSKLTVDKSRWQQGNVFSCSVMHEALHNHYTQKSLSLSPGK
light 1: not shown
light 2: QAVVTQEPSLTVSPGGTVTLTCGSSTGAVTTSNYANWVQEKPGQAFRGLIGGTNKRAPGTPARFSGSLLGGKAALTLSGAQPEDEAEYYCALWYSNLWVFGGGTKLTVLSSASTKGPSVFPLAPSSKSTSGGTAALGCLVKDYFPEPVTVSWNSGALTSGVHTFPAVLQSSGLYSLSSVVTVPSSSLGTQTYICNVNHKPSNTKVDKKVEPKSC
EC50 of T-cell killing of SKov-3, 24 h [1]: 0.00194 nM

B2: 16D5 G49S/S93A TCB (2+1 inverted, common light chain) (bispecific antibody, V domains shown)
VH 1: not shown
VL: QTVVTQEPSLTVSPGGTVTLTCGSSTGAVTTSNYANWVQQKPGQAPRGLIGGTNKRAPGTPARFSGSLLGGKAALTLSGVQPEDEAEYYCALWYANLWVFGGGTKLTVL
VH 2: not shown
EC50 of T-cell killing of HT-29, 48 h [2]: 0.0993 nM | EC50 of T-cell killing of Hela, 48 h [2]: 0.0009 nM | EC50 of T-cell killing of SKov-3, 48 h [2]: 0.0959 nM | fold lower affinity than 16D5 WT (57 nM) [3]: 14.5 fold | Kd [4]: 830 nM | koff [4]: 0.00837 s⁻¹ | kon [4]: 10100 M⁻¹ s⁻¹ | Kd [5]: 420 nM | koff [5]: 0.0086 s⁻¹ | kon [5]: 20500 M⁻¹ s⁻¹ | fold lower avidity than 16D5 WT (3 nM) [6]: 3 fold | Kd [7]: 10 nM | koff [7]: 0.00209 s⁻¹ | kon [7]: 149000 M⁻¹ s⁻¹ | Kd [8]: 20 nM | koff [8]: 0.00784 s⁻¹ | kon [8]: 454000 M⁻¹ s⁻¹ | EC50 of T-cell killing of Hela, 24 h [9]: 0.0023 nM | EC50 of T-cell killing of SKov-3, 24 h [9]: 0.43 nM | binding result [10]: no binding (tested: 500 nM) | binding result [11]: no binding (tested: 500 nM) | binding result [12]: no binding (tested: 500 nM)

B3: 20H7 IgG (antibody, V domains shown)
VH: QVQLVQSGAEVKKPGASVKVSCKASGYTFTSYYMHWVRQAPGQGLEWMGIINPSGGSTSYAQKFQGRVTMTRDTSTSTVYMELSSLRSEDTAVYYCARVGWYRWGYMDYWGQGTLVTVSS
VL: QAVVTQEPSLTVSPGGTVTLTCGSSTGAVTTSNYANWVQEKPGQAFRGLIGGTNKRAPGTPARFSGSLLGGKAALTLSGAQPEDEAEYYCALWYSNLWVFGGGTKLTVL
notes: human IgG1
binding result [13]: binds | binding result [14]: no binding (tested: 500 nM) | binding result [15]: no binding (tested: 500 nM)

B4: 16D5 IgG variant W96Y/K53A (HC/LC) (antibody, V domains shown)
VH: not shown
VL: QTVVTQEPSLTVSPGGTVTLTCGSSTGAVTTSNYANWVQQKPGQAPRGLIGGTNARAPGTPARFSGSLLGGKAALTLSGVQPEDEAEYYCALWYSNLWVFGGGTKLTVL
notes: IgG
Kd [16]: 580 nM | Kd [17]: 660 nM
